Among the data in the Immune Epitope Database (IEDB) are Kd and IC50 values, retold here.

For one experiment, the target named is HLA-A*31:01. The experiment is described as follows: IEDB peptide-MHC binding, purified MHC/competitive/radioactivity; filed as Kd, often an IC50 or EC50 that approximates it; ≥ and ≤ were set here for values at or beyond the usual limits of such assays. Particulars: source organism: Vaccinia virus WR.
For another experiment, the target named is HLA-A*11:01. Described as above. To be noted: source organism: Vaccinia virus WR.
Experiment [1] addresses HLA-A*03:01. The experiment is described as above. Particulars: source organism: Vaccinia virus WR.
The target in another experiment is HLA-A*33:01. Described as above. Particulars: source organism: Vaccinia virus WR.
The target in another experiment is HLA-A*68:01. The description is as above. Particulars: source organism: Vaccinia virus WR.
In experiment [2] the target is HLA-B*15:01. The experiment is described as follows: IEDB peptide-MHC binding, purified MHC/competitive/fluorescence; ≥ and ≤ were set here for values at or beyond the usual limits of such assays. To be noted: source organism: Vaccinia virus Copenhagen.
Another experiment concerns the target HLA-A*01:01. The description is as above.
A further experiment concerns the target HLA-B*46:01. The experiment is described as follows: IEDB peptide-MHC binding, purified MHC/direct/fluorescence; filed as Kd, often an IC50 or EC50 that approximates it; ≥ and ≤ were set here for values at or beyond the usual limits of such assays. Particulars: source organism: Vibrio cholerae O1 biovar El Tor.
A further experiment has as its target HLA-A*02:19. Described as above. Particulars: source organism: Vibrio cholerae O1 biovar El Tor.
Experiment [3] addresses HLA-A*03:01. The experiment is described as above. Particulars: source organism: Vibrio cholerae O1 biovar El Tor.
Experiment [4] has as its target HLA-B*15:01. Described as above. To be noted: source organism: Vibrio cholerae O1 biovar El Tor.
In experiment [5] the target is HLA-B*18:01. The description is as above. Particulars: source organism: Vibrio cholerae O1 biovar El Tor.
The target in experiment [6] is HLA-B*51:01. The description is as above. Particulars: source organism: Vibrio cholerae O1 biovar El Tor.
Another experiment addresses HLA-C*03:03. Described as above.
A further experiment has as its target HLA-C*08:02. The experiment is described as above.
The target in the next experiment is HLA-B*27:03. The description is as above. Particulars: source organism: Vibrio cholerae O1 biovar El Tor.
The target of a further experiment is HLA-A*26:01. The experiment is described as above. Particulars: source organism: Vibrio cholerae O1 biovar El Tor.
Experiment [7] concerns the target HLA-B*15:01. The experiment can be described thus: IEDB peptide-MHC binding, purified MHC/competitive/fluorescence; filed as Kd, often an IC50 or EC50 that approximates it; ≥ and ≤ were set here for values at or beyond the usual limits of such assays. Particulars: source organism: Homo sapiens.
Experiment [8] has as its target HLA-B*18:01. Described as above. To be noted: source organism: Homo sapiens.
Experiment [9] deals with HLA-B*51:01. The experiment is described as above. To be noted: source organism: Homo sapiens.
For another experiment, the target named is HLA-A*02:01. The experiment is described as above.
The target in the next experiment is HLA-C*12:03. The experiment is described as follows: IEDB peptide-MHC binding, purified MHC/direct/fluorescence; filed as Kd, often an IC50 or EC50 that approximates it; ≥ and ≤ were set here for values at or beyond the usual limits of such assays.
Experiment [10] deals with HLA-B*07:02. The experiment is described as above. Particulars: source organism: Macaca fascicularis.
Another experiment concerns the target HLA-B*35:01. The experiment can be described thus: IEDB peptide-MHC binding, purified MHC/competitive/radioactivity; filed as Kd, often an IC50 or EC50 that approximates it; ≥ and ≤ were set here for values at or beyond the usual limits of such assays. Particulars: source organism: Vaccinia virus WR.
Experiment [11] deals with HLA-B*51:01. The description is as above. To be noted: source organism: Vaccinia virus WR.
For experiment [12], the target named is HLA-B*07:02. The description is as above. To be noted: source organism: Vaccinia virus WR.
A further experiment has as its target HLA-B*53:01. The experiment is described as above. Particulars: source organism: Vaccinia virus WR.
A further experiment concerns the target HLA-B*54:01. The experiment is described as above. Particulars: source organism: Vaccinia virus WR.
The next experiment concerns the target HLA-B*39:01. The experiment is described as follows: IEDB peptide-MHC binding, purified MHC/competitive/fluorescence; filed as Kd, often an IC50 or EC50 that approximates it; ≥ and ≤ were set here for values at or beyond the usual limits of such assays. Particulars: source organism: Escherichia coli 536.
For a further experiment, the target named is HLA-B*40:01. The description is as above. Particulars: source organism: Escherichia coli 536.
The mark [13] stands for this setting: source organism: Vaccinia virus Copenhagen.
Where [14] appears, read: source organism: Vibrio cholerae B33.

pIC50, pKd: −log10 of the molar value.

Usually pKd stands for −log10 of the Kd, conventionally taken in molar units. A word on the pIC50: it is the negative decadic logarithm of the IC50, by convention in mol/L. The low end stands for a high IC50, the high end for a low IC50. For the sequence YVTLNASQY, the pKd was not above 4.29 in the experiment with HLA-A*31:01; 5.95 with HLA-A*11:01; 5.32 in the experiment with HLA-A*03:01 [1]; not above 4.11 in the experiment with HLA-A*33:01; 7.97 with HLA-A*68:01. For the same sequence, the negative-log IC50 (pIC50) with HLA-B*15:01 [2] is 5.09; with HLA-A*01:01 (setting [13]) it was 4.77.
As for FATPAFFLI, the negative-log Kd (pKd) with HLA-B*46:01 is not above 4.70; in the experiment with HLA-A*02:19, not above 4.70; with HLA-A*03:01 [3], not above 4.70; with HLA-B*15:01 [4] it was not above 4.70; with HLA-B*18:01 [5], not above 4.70; with HLA-B*51:01 [6] it was 6.07. The pKd is not below 9.00 in the experiment with HLA-C*03:03 (setting [14]), 6.70 with HLA-C*08:02 (setting [14]), not above 4.70 with HLA-B*27:03 and not above 4.70 in the experiment with HLA-A*26:01.
For the sequence FAAPHRGVA, the negative-log Kd (pKd) in the experiment with HLA-B*15:01 [7] was not above 4.70; with HLA-B*18:01 [8], not above 4.70; in the experiment with HLA-B*51:01 [9], not above 4.70; with HLA-A*02:01 (source organism: Homo sapiens), not above 4.70; with HLA-C*12:03 (source organism: Homo sapiens), not below 9.00; with HLA-B*07:02 [10], 8.51.
On to RVYEALYYV, for which the pKd with HLA-A*02:01 (setting [13]) is 9.10; with HLA-A*31:01, 7.86; with HLA-A*11:01, 7.10; with HLA-A*03:01 [1] it was 6.14; with HLA-B*35:01 it was not above 4.11; with HLA-A*33:01, not above 4.11. In addition, the negative-log Kd (pKd) in the experiment with HLA-B*51:01 [11] was not above 4.17; with HLA-A*68:01 it was not above 4.11; in the experiment with HLA-B*07:02 [12], not above 4.27; with HLA-B*53:01, not above 4.11; with HLA-B*54:01 it was 5.19; in the experiment with HLA-C*12:03 (setting [13]), 7.59. Besides, the negative-log Kd (pKd) is 5.90 in the experiment with HLA-C*03:03 (setting [13]) and not above 4.70 with HLA-C*08:02 (setting [13]).
For SSDPGTNTT, the pIC50 in the experiment with HLA-A*01:01 (source organism: Zaire ebolavirus) was not above 3.79.
Turning to EEQQSMLAL, the pKd with HLA-B*39:01 is 7.57; with HLA-B*40:01 it was 8.08.
